*1 amine or outer side, *2 acyl side, *3 side chain or, on linkers, in order; H or OH if unused. Bridges are numbered along the chain shown (N, C = ends). Where no end group is shown, it is not given here. [ ]: non-standard residue; d: D form. TATA = O=C(CC[*:1])N1CN(C(=O)CC[*:2])CN(C(=O)CC[*:3])C1; fluorescein = fluorescein (Fl) label on lysine; 1Nal = N[C@@H](Cc1cccc2ccccc12)C(=O)O; PABC = O=C(OCc1ccc(N[*:1])cc1)[*:2]; Glutaryl = O=C(CCCC(=O)[*:2])[*:1]; Hyp = O=C(O)[C@@H]1C[C@@H](O)CN1; hArg = N=C(N)NCCCC[C@H](N)C(=O)O; Cit = NC(=O)NCCC[C@H](N)C(=O)O; βAla = NCCC(=O)O; Sar = CNCC(=O)O
Legend:
[1] = target: T1, Nectin-4 on MDA-MB-468 cells (UniProt Q96NY8 32-510, limits assumed); assay: HCS cell binding assay on MDA-MB-468 cells, detection with fluorescent anti-MMAE antibody
T1 construct: whole, on cells; the cell line is a human breast cancer line; also called PVRL-4
T1 sequence (looked up): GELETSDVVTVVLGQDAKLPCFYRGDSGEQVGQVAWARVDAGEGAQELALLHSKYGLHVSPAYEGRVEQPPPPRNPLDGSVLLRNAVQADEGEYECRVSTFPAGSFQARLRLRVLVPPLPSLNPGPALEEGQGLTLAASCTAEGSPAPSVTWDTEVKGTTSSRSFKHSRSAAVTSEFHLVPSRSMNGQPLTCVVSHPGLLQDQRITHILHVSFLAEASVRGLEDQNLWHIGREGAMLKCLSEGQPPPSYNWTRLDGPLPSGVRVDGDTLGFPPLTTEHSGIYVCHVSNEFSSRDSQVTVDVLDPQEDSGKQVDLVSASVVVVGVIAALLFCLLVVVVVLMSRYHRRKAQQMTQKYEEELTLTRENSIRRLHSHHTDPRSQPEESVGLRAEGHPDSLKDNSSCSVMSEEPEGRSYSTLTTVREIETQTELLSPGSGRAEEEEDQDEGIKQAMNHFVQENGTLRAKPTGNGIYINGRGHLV
Protocol: (§1) HCS assay was used in Nectin-4 BDC binding study. Cells were incubated with test agent and then washed. Detection was by a fluorescent antibody to MMAE.

[2] = target: T2, Human Nectin-4 (residues Gly32-Ser349; NCBI RefSeq: NP_112178.2) with C-terminal FLAG tag, biotinylated (human, UniProt Q96NY8 32-349, randomly biotinylated with EZ-Link Sulfo-NHS-LC-LC-Biotin); assay: Biacore SPR, biotinylated Nectin-4 captured on streptavidin chip, conjugate as analyte
T2 construct: range 32-349; also called human Necin-4 protein; biotinylated Nectin-4; not shown: C-terminal FLAG tag
T2 sequence (looked up): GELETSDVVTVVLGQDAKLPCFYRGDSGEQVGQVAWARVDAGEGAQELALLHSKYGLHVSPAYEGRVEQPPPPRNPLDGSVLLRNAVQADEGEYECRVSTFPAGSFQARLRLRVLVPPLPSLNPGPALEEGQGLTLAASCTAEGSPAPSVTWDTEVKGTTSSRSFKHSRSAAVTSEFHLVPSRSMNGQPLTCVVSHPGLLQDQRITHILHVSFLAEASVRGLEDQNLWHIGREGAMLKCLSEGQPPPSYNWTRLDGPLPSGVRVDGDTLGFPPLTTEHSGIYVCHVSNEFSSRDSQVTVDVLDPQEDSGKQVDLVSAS

[3] = target: T1, Nectin-4 on MDA-MB-468 cells; assay: HCS cell-binding assay on MDA-MB-468 cells at 4°C: cells incubated with the test agent, washed, detected with a fluorescent antibody to MMAE; readout membrane mean intensity CH2 (RFU) [A]
Protocol: as §1

[4] = target: T1, Nectin-4 on MDA-MB-468 cells; assay: historical Kd as printed in Table 44; assay not described
[5] = target: T3, human Nectin-4 (protein used in the fluorescence polarisation direct and competition binding assays) (human, UniProt Q96NY8 32-349); assay: fluorescence polarisation direct binding assay
T3 construct: It may be the Gly32-Ser349 FLAG construct described for SPR
T3 sequence (looked up): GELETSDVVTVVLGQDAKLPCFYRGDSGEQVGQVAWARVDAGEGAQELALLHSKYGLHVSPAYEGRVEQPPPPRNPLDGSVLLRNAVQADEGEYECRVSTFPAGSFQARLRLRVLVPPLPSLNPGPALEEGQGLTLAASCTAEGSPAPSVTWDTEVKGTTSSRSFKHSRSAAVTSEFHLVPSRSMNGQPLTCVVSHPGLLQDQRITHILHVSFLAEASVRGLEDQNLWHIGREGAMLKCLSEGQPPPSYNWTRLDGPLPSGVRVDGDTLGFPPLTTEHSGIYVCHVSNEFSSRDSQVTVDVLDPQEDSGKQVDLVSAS
Protocol: (§2) Affinity of the peptides of the invention for human Nectin-4 (Ki) was determined using a fluorescence polarisation assay, in accordance with the methods disclosed in WO 2016/067035. Peptides of the invention with a fluorescent tag (either fluorescein, SIGMA or Alexa Fluor488™, Fisher Scientific) were diluted to 2.5 nM in PBS with 0.01% tween 20 or 50 mM HEPES with 100 mM NaCl and 0.01% tween pH 7.4 (both referred to as assay buffer). […] Measurements were conducted on a BMG PHERAstar FS equipped with an “FP 485 520 520” optic module which excites at 485 nm and detects parallel and perpendicular emission at 520 nm. The PHERAstar FS was set at 25° C. with 200 flashes per well and a positioning delay of 0.1 second, with each well measured at 5 to 10 minute intervals for 60 minutes. […] Data was analysed using Systat Sigmaplot version 12.0. mP values were fit to a user defined quadratic equation to generate a Kd value: f=ymin+ (ymax−ymin)/Lig*((x+Lig+Kd)/2-sqrt((((x+Lig+Kd)/2)\hat{ }2)−(Lig*x))).

[6] = target: T3, human Nectin-4 (protein used in the …); assay: fluorescence polarisation competition; competitor: fluorescent tracer SEQ ID NO: 2; 2 experiments
Protocol: as §2
(§3) Peptides were diluted to an appropriate concentration in assay buffer as described in the direct binding assay with a maximum of 5% DMSO, then serially diluted 1 in 2. […] Measurements were conducted as for the direct binding assay, however the gain was determined prior to the first measurement. […]

[7] = target: T2, Human Nectin-4 (residues Gly32-Ser349; …); assay: Biacore SPR, biotinylated Nectin-4 captured on streptavidin chip, peptide as analyte; n = 1
[8] = target: T2, Human Nectin-4 (residues Gly32-Ser349; …); assay: Biacore SPR, biotinylated Nectin-4 captured on streptavidin chip, peptide as analyte; n = 4
[9] = target: T3, human Nectin-4 (protein used in the …); assay: fluorescence polarisation competition; competitor: fluorescent tracer SEQ ID NO: 2; 6 experiments
Protocol: as §2, §3

B1: BCY8245: MMAE-PABC-Cit-Val-Glutaryl-BCY8234 (BCY8234 = [B-Ala][Sar10]-(SEQ ID NO: 1), cyclised with TATA) (peptide)
peptide: {MMAE-PABC-Cit-Val-Glutaryl}-[βAla][Sar][Sar][Sar][Sar][Sar][Sar][Sar][Sar][Sar][Sar]CP[1Nal][dD]CM[hArg]DWSTP[Hyp]WC
modifications: linker 12-16-26 via TATA
notes: Bicyclic peptide drug conjugate (BDC) with an MMAE to drug ratio of 1; also called BT8009
- Kd [1]: 3.52 nM
- Kd [2]: 5.12 nM
- EC50 (read off the curve) [3]: ~3 nM
- Kd [4]: 5.18 nM

Binder: ACPFGCHTDWSWPIWCA[Sar][Sar][Sar][Sar][Sar][Sar]K(fluorescein) (linker 2-6-16 via TATA, also called fluorescent peptide; tracer) [ACPFGCHTDWSWPIWCA-Sar6-K(FI) (SEQ ID NO: 2)]
- Kd [5]: 5 nM

Binder: Ac-[βAla][Sar][Sar][Sar][Sar][Sar]CP[1Nal][dD]CM[hArg]DWSTP[Hyp]WC (linker 7-11-21 via TATA, Bicyclic peptide) [BCY8122: Ac-[B-Ala][Sar5]-(SEQ ID NO: 1), cyclised with TATA]
- Ki [6]: 3 nM
- Kd [7]: 0.89 nM

B2: BCY8126: Ac-(SEQ ID NO: 1), cyclised with TATA (peptide)
peptide: CPADCMRDWSTPPWC
modifications: N-terminal acetyl; core as printed Ci-P1-[1Nal]2-[dD]3-Cii-M4-[HArg]5-D6-W7-S8-T9-P10-[HyP]11-W12-Ciii (1Nal = 1-naphthylalanine, dD = D-Asp, HArg = homoarginine, HyP = hydroxyproline); Ci, Cii and Ciii covalently bound to the TATA scaffold
notes: Bicyclic peptide
- Kd [8]: 1.07 nM
- Ki [9]: 2.7 nM

B3: BCY8116: (SEQ ID NO: 1), cyclised with TATA (peptide)
peptide: CPADCMRDWSTPPWC
modifications: core as printed Ci-P1-[1Nal]2-[dD]3-Cii-M4-[HArg]5-D6-W7-S8-T9-P10-[HyP]11-W12-Ciii (1Nal = 1-naphthylalanine, dD = D-Asp, HArg = homoarginine, HyP = hydroxyproline); Ci, Cii and Ciii covalently bound to the TATA scaffold
notes: Bicyclic peptide
- Kd [7]: 0.372 nM
